Biological target: ELIC-α1GABAAR chimera (Erwinia chrysanthemi | human) (UniProt P0C7B7)
Experiment: crystal structure

In the case of “ELIC-α1GABAAR chimera (from UniProt P0C7B7 1-199) (receptor)”, the stoichiometry N is reported as 5.
